Test results: PMC3085951 (Journal of controlled release : official journal of the …, 2011)

Key:
[1] = target: recombinant human MT1-MMP catalytic domain (human, UniProt P50281 114-287); assay: ELISA
[2] = target: T1, MT1-160p (MT1-MMP amino acids 160-174) (human); assay: ELISA
T1 peptide: REVPYAYIREGHEKQ

Binder | Kd [1] | Kd [2]
HWKHLHNTKTFL [MT1-AF7p] | 47.4 nM | 
HWKHLHNTKTFL [phage-displayed MT1-AF7p] |  | 0.075 nM
